Source: the nanobody polyreactivity screen of Harvey et al. (2022)

Experiment: yeast display, Sf9 membrane polyspecificity reagent, FACS + sequencing; frameworks hold sequencing errors
Method in brief: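 Polyreactivity labels are assigned by the sorting gate from which each nanobody was recovered. The gates were low and high (top ~1%), set on anti-HA fluorescence for expression and streptavidin fluorescence for reagent binding. Before sorting, galactose-induced (36–48 hours) yeast display cells were stained for 1 hour at 4 °C with 10% biotinylated, detergent-solubilized Sf9 membrane reagent.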

Row | Sequence | polyreactivity (PSR sort gate)
1 | QVQLVESVGGLVQAGGSLSLSCAASVFGRYAMGWYRPAPGKERELVARIYSSGGSTHYADSVKGRFTISRDNAKNTVYLQMNSLKPEDTAVYYCATGSTRWGCYYYWGQGTQVTVSS | high polyreactivity
2 | QVQLVESVGGLVQAGGSRRLTSAASGRTFREYAMGWYRQAPWKERELVAAISDSGDSTYYADSVKGRFTISRDNAKNTVYLQMNSLKPEDTAVYYCAADYYDYEYDYWGQGTQVTVSS | low polyreactivity
3 | QVQLVESVGGLVQAVGSLRLSCAASGRTFRHNAMGWYRQAHGKVRELVAAISSSGTNTHYADSVKGRFTISRDIAKNTVYLQMNSLQPEDTAVYYCAADRWGARRNQYHENGYWGQGTQVTVSS | high polyreactivity
4 | QVQLVESVGGLVQEGGSLRLSCDASGSIFLYAMGWYRQAPGKERELVAAINRGGGSTYYADSVKGRFTISRDNAKNTVYLEMNSLKPEVTAVYYCAVVYLLPRYWWRYDYWGQGTQVTVSS | low polyreactivity
5 | QVQLVESVGRLVQAGGSLRLSCAASGRIIYWNAKGWYRQAPGKERELVAGITTGGSTYYADSVKGRFTISRDNAKNTVYLQMNSLKPEDTAVYYCAARPFIRQRYGYWGKGTQVTVSS | high polyreactivity
6 | QVQLVESVGVLVQAGGSLRLSCAASGSTFSSYAMGWYRPAPGKERELVAVISSRGTSTSYADSVKGRFTISRDNAKNTVYLQMNSLKQEDTAVYYCAASRFRWVQRYDYWGQGTQVTVSS | high polyreactivity
7 | QVQLVESVRGLVQAGGSLRISCASSGSTFFTYPMGWYRQAPGKERELVASISIGGSTNYADSVKGRFTISRDNAKNTVYLQMNSLKPEDTAVYYCAKRYFTFGVDYDYWGQGTQVSVSS | low polyreactivity
8 | QVQLVESVRGLVQAGGSLRLSCASSGSTFYGYTLGWYRQAPGKERELVAAISWSGGSTYYADSVKGRFTISRDNAKNTVYLQMNSLKPEDTAVFYCAARWGYSRRGYRGYDYWGQGTQVTVSS | high polyreactivity
9 | QVQLVESVVGLVQAGGSLLISCAAYGLTFKGYAMVWYRQAPGKERELVAAITWDTGSTYYADSVKGRFSISRDNAKNTVYLQMNSLKPEDTAVYYCAAVGSTTTGVRRRGYWGHGTQVTVSS | high polyreactivity
10 | QVQLVESVVGLVQAGGSLRLSCADSGSTFRSNAMGWYRQAPGKETELVAGITSGTSTNYADSVKGRFTISRDNAKNTVYLQMNSLKPEDTAVYYCNTDRIWYGPEYDFWGQGTQVTVSS | low polyreactivity
11 | QVQLVESVVGLVQARGSLRLSSAATGRTFSRYAMGWYRQAPGKESELVATISWSGTSKYYADSVKGRFTISRDNAKNTVYLQMNSLKPEETAVYYCDAYYLTRFSILYYYWGLGTQVTVSS | high polyreactivity
12 | QVQLVESWGGLDQAGGSLRLSCAASGRILRTYAMGWYRQAPGKERELVAAITWSGGSTYYADSVKGRFTISRDNAKNTVYLQMNSLKPEDTAVYDCNALTPGYRIYDYWGQGTQVTVSS | high polyreactivity
13 | QVQLVESWGGLVQAGGILRLSCASYGFIFPIYAMGWYIQAPGKESELVALIRSGGSTYYADSVKGRFTISRDNAKNTVYLQMHSRKPEDTAVYYCKAKRYGMWGAAGRVGYDYWGQGTQVTVSS | high polyreactivity
14 | QVQLVESWGGLVQAGGSHRLSCAASGRTFPIYAMGWYRQAPGKERELVAAITYSGGSTYYADSVKGRFTISRDNAKNTVYLQMNSLKPEDTAVYYCAVDGTKPYWHQRYDYWGQGTQVTVSS | low polyreactivity
15 | QVQLVESWGGLVQAGGSLRISCAASGNIFRYAMGWYRQAPGKERELVAAITYRGSTTYYADSVKGRFTISCDNAKNTVYLQMISLKPEDTAVYYCAARASYTRRHVGRPYDYWGQGTQVSVSS | high polyreactivity
16 | QVQLVESWGGLVQAGGSLRLRCAASGRIFVSNAMGWYRQAPGKERELVAAISKRGASTYYADSVKGRFTISRDNAKNTVYLQMNSLKPEDTAVYYCNVVTPGGPNYDYWGQGTQVTVSS | high polyreactivity
17 | QVQLVESWGGLVQAGGSLRLSCAASGFTLYYYAMGWYRPAPGKERELVARISLRGGRTYYADSVKGRFTISRDNAKTTVYLQMNSLKPEESAVYYCAAVGRYPITWESGESDYWGQGTQVTVSS | high polyreactivity
18 | QVQLVESWGGLVQAGGSLRLSCAASGIIFQNYDMGWYRQAPGKERELVAAITGSGGSTYYADSVKGRFTISRDNAKNIVYLQMNSLKPEDTAVYYCAASSFVVSGYNKYYEYGYWGQGTQVTVSS | low polyreactivity
19 | QVQLVESWGGLVQAGGSLRLSCAASGLIFVGNAMGWYRQAPGKERELVAAISSRGGRTYYADSVKGRFTISRDNAKNTVYLQMNSLKPEDTAVYYCAARVWRYPYYWGQGTQVTVSS | high polyreactivity
20 | QVQLVESWGGLVQAGGSLRLSCAASGRIFYVYDMGWYRQAPGKERELVAAISWSGGSTSYADSVKGRFTISRDKAMYTVYLQMNSLKPEDTAVNYCAATSAIGWGYDYWGQGTQVNVSS | low polyreactivity
21 | QVQLVESWGGLVQAGGSLRLSCAASGRIIDRKAMGWYRQAPGKERELVAAISSSGSTNYADSVKGRFTFSRDNAKNTVYLQMISLKPEDTSVYYCAARWRSVLAAGTRPVSFDYWGQGTQVTVSS | low polyreactivity
22 | QVQLVESWGGLVQAGGSLRLSCAASGRIINQYAMGWYRQAPGKERELVAAITLNGGSTYYADSVKGRFTISRDNAKNTVYLQMNSLKPEDTAVYYCNNRYTHYSRKGVSYPKYDYWGQGNQVTVSS | high polyreactivity

Row | Sequence | polyreactivity (PSR sort gate)
23 | QVQLVESWGGLVQAGGSLRLSCAASGRILNYYDMGWYRQAPGKERELVAGISRGGSTTYADSVKGRFTISRDNAKNTVYLQMISLKPEDTAVYYCNADRSHYWLPYGVRFDYWGQGTQVNVSS | low polyreactivity
24 | QVQLVESWGGLVQAGGSLRLSCAASGRTFHSYAMGWYRQAPGKERELVAAITSSGGSTYYADSVKGRFTISRDNAKNTVYLQMNSLKPEDTAVYYCAAPYRYLSRGGEMGYWGQGTQVTVSS | high polyreactivity
25 | QVQLVESWGGLVQAGGSLRLSCAASGRTFRLYAMGWYRQAPGKERELVATNTSTGSTNYADSVKGRFTISRDNAKNTVFLQMNSLKPDDTAVYYCNAAWYNPKSWTQYPPFDYWGQGTQVTVSS | high polyreactivity
26 | QVQLVESWGGLVQAGGSLRLSCAASGRTFRRNAMGWYRQSPGKERELVATISSSGGRTYYADSVKGRFTISRDNAKKTVYLQMNSLKPEDTAVYYCIKALRSYPLFYFWVQGTQVTVSS | high polyreactivity
27 | QVQLVESWGGLVQAGGSLRLSCAASGRTLGRNAMGWYRQAPGKEREWVASISSGGSTNYADSVKGRFTISRDNAKNTVYLQMNSLKPEDTAVYYCNKRYRSLYSSGYDYWGQGTQVTVSS | high polyreactivity
28 | QVQLVESWGGLVQAGGSLRLSCAASGRTSGNYAMGWYRQAPGKERELVAAIRYSGSSTFYADSVKGRFTISRDNAKNTVYLQMNSLKPEDTAVYYCARDIRRKGFRYDYWGQGTQVNVSS | high polyreactivity
29 | QVQLVESWGGLVQAGGSLRLSCAASGSIFDNYAMGWYRQAPGKERELVAAISWSGGRTYYADSVKGRFTISRDNAKNTVYLQMNSLKPEDTAVYYCAAYVYTSFLYYYWGQGTQVTVSS | high polyreactivity
30 | QVQLVESWGGLVQAGGSLRLSCAASGSIFPRNAMGWYRQAPGKERELVATISSGGSTYYADSVKGRFTISRDNAKNTVYLQMNSLKPEDTAVYYCAAEYVVRAIDVDYDYWGQGTQVTVSS | high polyreactivity
31 | QVQLVESWGGLVQAGGSLRLSCAASGSIFSPYAIGWYRQAPGKERELVAAISFRASTTYYADSVKGRFTITRDNAKNTVYLQMNSLKPEDTAVYYCAASPLYSWFWGLYDYWGQGTQVTVSS | low polyreactivity
32 | QVQLVESWGGLVQAGGSLRLSCAASGSIFSYYGMGRYRQARGKERELVAAITRSTGSTYYADSVKGRFTISRDNAKNTVYLQMNSLKPEDTAVYYCATDYVVLWEFDYWGQGTQVTVSS | low polyreactivity
33 | QVQLVESWGGLVQAGGSLRLSCAASGSTFAVNAMGCYRQAPGKERELVDAITVSGGSTDYAYSVKRPFTISRDNAKYSVYLQLNRLKPEDTGVYYCADVRMKYYIYGGYDYWGQGTQVNVSS | low polyreactivity
34 | QVQLVESWGGLVQAGGSLRLSCAASGTTFTVYAMGWYRQAPGKERELVAAISWSTGRTYYADSVKGRFTISRDHAKNTVYLQMNSLKPEDTAVYYCAARVSYYRTPAEYGYWGQGTQVTVSS | high polyreactivity
35 | QVQLVESWGGLVQAGGSLRLSCAASGYIFDRYAMGWYRQAPGKERELVAAISGRGGSTYYADSVKGRFTISRDNAKNTVYLQMNSLKPEDTAVYYCARDVYVRNGQRARYDSWGQGTQVTVSS | high polyreactivity
36 | QVQLVESWGGLVQAGGSLRLSCADSGRIFRGYGMGWYIQAPGKERELVAVISYSGTPTYYADSVKGRFTISRDNAKNTVYLQMNSLKAEDTAVYYCAARLYWIPPSPSRYDYWLQGTQVTVSS | high polyreactivity
37 | QVQLVESWGGLVQAGGSLRLSCDASGSTFDGNDMGWSRPAPGKQRELVAAITIGGGSTYYADSVKGRFTISRDNAKNTVYLQMNSLKPEDTADYYCATEWVTGSEDYDYWGQGTQVTVSS | low polyreactivity
38 | QVQLVESWGGLVQAGGSLRLSCPASGYIIQTYAMGWYRQAPGKEREFLAAMTSGAGRTSYADSVKGRFTISRDNAKNTVYLQLHRLKPEDTAVYFCAARWRYQLSGSRLSYGKYDYWGQGTQVTVSS | high polyreactivity
39 | QVQLVESWGGLVQAGGSLRLSCSAYGYTFTLTPMGWSRQAPGKERELVAAISRSGGSTYYADSVKGRFTISRDNAKNTVYLQMISLKPEDTAVYYCDADGYSGYDYWGQGTLVTVSS | low polyreactivity
40 | QVQLVESWGGLVQAGGSLSLSCAASGSIFAANAMGWYRQAPGKERELVAAISWSGGSTYADSVKRRFTISRDNEKNTVYLQRNSLKPEDTAVYYCAADLCSQYKFGYCGQGTQVTVSS | low polyreactivity
41 | QVQLVESWGGLVQAGRSLRLSCAASGRTFYNYAMGWYRQAPGKERELVAAITRGGSTYYADSVKGRFTISRDNAKNTVYLHMNSLKPEDTAVYFCNAKYIKGRDWGQGTQVTVSS | high polyreactivity
42 | QVQLVESWGGLVQEGGSLRVSCAASGSIFSHYAMGRYRQAPGKEREFVAAIPRGVSTYYADSVKGRFTISRDNAKNTVYLLMNSLKPEYTGVYSCNKTYVRGVHGVYLPITSYDYWGQGTQVTVSS | low polyreactivity
43 | QVQLVESWGVLVQAGGSLRLSCAASGYTFLVYAMGWYRQAPGKERELVAGITRGSSTYADSVKGRFTISRDNAKNTVYLQMNSLKPEDTAVYYCAARFAKQDYDYWGQGTQVTVSS | high polyreactivity
